The record followed here is EP4545559A2 (INSTITUTO BUTANTAN, dated 2025).

One may read the Kd as the constant that tells how readily two partners part at equilibrium. Read a low Kd as higher affinity.

The target of test [1] is T1, RBD WT (original Wuhan) (SARS-CoV-2, UniProt P0DTC2 319-541).
The target of test [2] is T1, RBD WT (original Wuhan). The source holds these as a separate data set.
In test [3] the target is T1, RBD WT (original Wuhan). The source holds these as a separate data set.
Test [4] addresses T1, RBD WT (original Wuhan). This is another data set of the same source.
Test [5] concerns the target T1, RBD WT (original Wuhan). The source holds these as a separate data set.

Like-named read-outs stand apart in the source and are kept apart here.

B1: Monoclonal antibody S.9.1.C9 (antibody, V domains shown)
VH: QVQLVESGGGVVQPGRSLGLSCAVSGFTFSNYGMDWVRQAPGKGLEWVAVTSYDGSNKYYADSVKGRFTISRDNSKNTLYLQMNSLRTEDTAVYYCAKHGGGPYCGGGTCYLAYFDYWGQGTLVTVSS
VL: DIQMTQSPSSLSASVRDRVTITCQASQDISKFLNWYQQKPGKAPKLLIYDASNLETGVPSRFSGSGSGTDFTFTISSLQPEDIATYYCQQYDNLPITFGQGTRLEIKR
notes: also called mAb S.9.1.C9
The molecule B1 yielded an equilibrium dissociation constant (Kd) with RBD WT (original Wuhan) [1] of 0.214 nM.

B2: Monoclonal antibody S.9.4.F4 (antibody, V domains shown)
VH: QVQLVESGGGVVQPGRSLRLSCAASGFTFSHYGMHWVRQAPGKGLEWVAVILYDGSNEYYADSVKGRFTISRDNSKNTLYLQMNSLRAEDTAVYYCAKGAGTYCSGGNCYVAYFDYWGQGTLVTVSS
VL: AIRMTQSPSSLSASVGDRVTITCQASQDISNYLNWYQQKPGKAPKLLIYDASNLETGVPSRFSGSGSGTDFTVTISSLQPEDFATYYCQQYDNLPLTFGGGTKVEIK
notes: also called mAb S.9.4.F4
In turn, B2 displayed a Kd with RBD WT (original Wuhan) [2] of roughly 0.0336 nM.

B3: Monoclonal antibody S.9.2.D7 (antibody, V domains shown)
VH: EVQLLESGGGLIQTGGSLRLSCAASGFTFSSYAMSWVRQAPGKGLEWVSVISDSGGSTYYADSVKGRLTISRDNSKNTLYVQMNSLRAEDTAVYYCAKGKGGIAAAGPAFLFDYWGQGTLVTVSS
VL: DIQMTQSPSLLSASAGDRVTISCRMSQGISSYLAWYQQKPGKAPELLISSASTLQSGVPSRFSGSGSGTDFTLTISYLQSEDFATYYCQQYYSFPTTFGGGTKVEIK
notes: also called mAb S.9.2.D7
For the molecule B3, the equilibrium dissociation constant (Kd) with RBD WT (original Wuhan) [3] was 4.85 nM.

B4: Monoclonal antibody S.9.2.B8 (antibody, V domains shown)
VH: EVQLVETGGGLIQPGGSLRLSCAASGLIVSSNYMTWVRQAPGKGLEWVSVLYSGGTTYYADSVKGRVTISRDNSKNTLYLQVNSLTVADTAVYYCARDLADRGGMDVWGQGTTVTVSS
VL: SYELTQPPSVSVAPGQTARITCGGNNIGSQSVHWYQQKPGQAPVLVVYDDSDRPSGIPERFSGSKSGNMATLTISRVEAGDEADYYCQVWDSSSDHVVFGGGTKLTVL
notes: also called mAb S.9.2.B8
Take B4: the dissociation constant (Kd) with RBD WT (original Wuhan) [4] is 1.99 nM.

B5: Monoclonal antibody S.9.4.C7 (antibody, V domains shown)
VH: QVQLVESGGGVVQPGRSLRLSCAASGFTFRNYAMHWVRQAPGKGLEWVTVISYDGSDKYYADSVKGRFTISRDNSKNTLYLQMNSLRAEDTAVYYCAKDPVGGYCSGGRCYFHSHYFDYWGQGTLVTVSS
VL: NFMLTQPHSVSESPGKTVTISCTRSSGSIASYYVQWYQQRPGSSPTTVISEDNQRPSGVPDRFSGSIDSSSNSASLTISGLKTEDEADYYCQSYDSNNHVIFGGGTKLTVL
notes: also called mAb S.9.4.C7
Molecule B5 came in with a Kd with RBD WT (original Wuhan) [5] of 0.0407 nM.
